16 sequences from the DeepSol protein solubility set can be followed below.

The nature of this data set: soluble on expression in E. coli; label from the status in PepcDB or PDB records.
For “MAHHHHHHMQANLWLKGQTSTPLQRICDPVPNLLISQSSQGGQRALWLLHRPESVLGLVVSPQWQGESGDHELCDASVVSKRKIVRVMKHLHSLPFRVAGSSPLRPPMVVHKNHLVGWRIDGKAAPLYAHTLDQLAKLKPTQFKTIEPKNAFICRTYYEWDNWKEVSMEPGWTWHHVDEEIANNILDGTLTFDGLRATATDTP”, the “soluble on expression in E. coli” value is recorded as “soluble”.

Regarding “MGSDKIHHHHHHVQDKNFDKLAHKFAKNIYGTPKGEIRAAVLWRDLSSALAPFGDKKLRILDAGGGFGFFSQKLARLGHEVVLCDISQEMLIQAQAHIDASTEPLNIELIHAPIQALSVEQNGVFDLILCHAVVEWLTDAQRTMEGLLTMLKPNGLFSLMFYNKEAMRFHALISGNFDYVAADLKVKKKVRLTPTHPLYIQEVKQWFMDWEMTLISQSGVRVIHDYLKKSQAADFDYQKLLQMELEYSQHEPYISLGRYVHFLGISRGT”, the “soluble on expression in E. coli” value is listed as “not soluble”.

As for “MSLKFPRKGIPQEEVMRELEKYTSKDLSFSSGKILGSMCTLPHELAKEVFCMYMDRNLGDPGLHPGTKKIEEEVIEMLSDLLHLERGYGHIVSGGTEANILAVRAFRNLADVENPELILPKSAHFSFIKAGEMLGVKLIWADLNPDYTVDVKDVEAKISENTIGIVGIAGTTGLGVVDDIPALSDLARDYGIPLHVDAAFGGFVIPFAKELGYDLPDFDFKLKGVQSITIDPHKMGMAPIPAGGIVFRHKKYLRAISVLAPYLAGGKIWQATITGTRPGASVLAVWALIKHLGFEGYMEIVDRAMKLSRWFAEEIKKTPGAWLVREPMLNIVSFKTKNLRRVERELKSRGWGISAHRGYIRIVSHASCDGGHDEGHHHHHH”, the “soluble on expression in E. coli” value is reported as “soluble”.

For the sequence “MARLARLGEPFALATVVASSGSSPRKAGAKMLIRGDGSALGTVGGGHVEQDTLAAARASLAEGAPRTLEFVLTEEHGYACGGSMSVFIEPQGRRPLLVMFGAGHVGRAVTALAHGCGFRVIVVDERPEYAVPALLPGADEIVCVPVGAAFARLTLDRESFAVIATPGHVHDFDAVRGCLATEVGFIGLLGSRRKREALMKTLTEEGYEAGRQARVVTPVGLDIGAQTPEEIAVSIVGQLVKLRRQA”, the “soluble on expression in E. coli” value is recorded as “not soluble”.

Consider “MYQLSRTQILPVPLTVAWDFFSDPRNLAAITPPDMGFVITSPVPERTHAGMVVTYAVSPFGGLRLPWVTEITHCAEPSLFVDEQRFGPYRFWHHQHHFLEVSGGVEMRDIVHYILPFGIIGRLSAPVVAKRLKAIFDYRRDTLAVRFAALSRGALEHHHHHH”, for which the “soluble on expression in E. coli” value was “not soluble”.

For “MGSDKIHHHHHHMKEKIVLAPQKGPQEMFLATSADICIYGGAAGGGKTFGLLLEPLRYMNNPDYNATIFRRDYTQVTSPGGLWDSSRKIYRYVKGSRPLKTPKLHWTFKRGASVNFAHLGRDEDCDDWQGSQLTMIGFDELTHFSEYQFFYMLSRNRTDSGVKPYVRATCNPDADSWVAEFISWWINQETGYPIPERSGVIRWMVRLNEVVTWFDSREEAVQGAIENGVKPEQAETMPKSVTFIASTLHDNKILMKNDPGYLANLQAMTLVQRERLLHGNWKIKAAAGLMFKRVKVNMLEEIPPDVIKWARGWDLAATSEDEKGDPAYTAGVLIGKRRNGRYIVADVINRRLSSSDVREIIKQTCIADRAKYGRVATRLPQDPGQAGKDQAQSFMKLLAGFTVKCIQESGDKVTRAEPFSAQWLGLEGMDKGNVDVLIAPWNEEYFNECENFPQSKFKDMVDASSSAFTELESGATYSAPPKDSQLGKSSYWNK”, the “soluble on expression in E. coli” value is on record as “not soluble”.

In the case of “MAHHHHHHMPFVDHNKYKIQREDLPALPHFTDFNDPRFCGTNNKQKNGILAYYQWLHCVGNWGEEHSMCKKMRWYVERMMQEVWLEKWEEKRALGHFDHVLLYGVKPWKDFEPLYQPVKTNRKGAYEFWLDRDFEPLYDADASDFCEKAPILHDIFVKGKKPVYDE”, the “soluble on expression in E. coli” value was “not soluble”.

Regarding “MAHHHHHHMYSFSPVTPGKTAASPANDLVSSSSNSNGELVDDIKESLDRIEKLLNRGQQLLYGDGAADGKKAYSEGAAVTPDGEPADADTVSIPTARHVDANCGSYQLPSDTHVGLPLRGTGTSAAANASLYPQSTSQHSASHFQRNSEKLYQRLSGESNHRYPSQNGSNRSSLHARPHANRASVGSNRLPPGFKDKVLVSVRGRRIVQIQKEGGIVPNFEEGLDAHDTPQNFTIEELKARIHRELEEYRRLGPLMNRYKSFRRRQCVTVAKRAPMMKIASRTFTAATTAALGSKLVKHIPAPASASTPQGAANRFGVHAAAATTKTGPHAAPASRQAAKSTNGTPARSTLRNSHERGRVETRRADRGSHPPMMAPPGNSTYSAYYNPLQMSGGSRNASCELSLKQTAGCSDVVPQHARNVSKSKPRTTEPQDDMEEASLPDSMEDCDASQPYVAPLDLSVIKK”, the “soluble on expression in E. coli” value is on record as “not soluble”.

On to “MNEDNSPSSNEGKKEKAEGPSRKSFFERLGQLFQGEPKDRQELVDVIRDSEVNDLIDHDTRDMLEGVMEISEMRVRDIMIPRSQMVTVERTDDLDTLIALITDAQHSRYPVISEDKDHVEGILLAKDLLKYLGSGSNPFDIEEVIRPAVVVPESKRVDRLLKEFREERYHMAIVVDEFGGVSGLVTIEDILEEIVGDIEDEFDESEETDIRKLSKHTFAVRALTTIEEFNETFGTNFSDEEVDTVGGMVMTAFGHLPSRGELVEIEGYNFKVTAADNRRVIQLQVTIPDEETLVEATQE”, for which the “soluble on expression in E. coli” value was “not soluble”.

In the case of “MPTSNTAFLIQNLPASRTAPHYRAGLDPVKGGLALQRSGGRVYISLLMGKRGFLRREASPKEVLEHCLRLAREVAPPTPKGKRGRPWRYSHALYLALLLFRAFFHLTYRETEASLQDLMEGPFPSHQSLARYALKHLDPKLLEALLERLSRELEAHLAPESSPEGEAASDEAPAHLAALSPP”, the “soluble on expression in E. coli” value is on record as “soluble”.

Take “MCTELEPHQRLKKIIDEIGVSQTKLACKYLGRATINKIIRGERPLNAAQAYKFIQRFKDFGYNADIELILGIPTKTIDSTVKKFLSNTKKHYLEFDKLIDKLYKDKAIEVIWNVIEKLDIQDVYKNANIILKYLTKLMQYDLDADIYLKVNIELIKIYTATANYERAITAFNSLKNFSILDRETKVKCFLNVALAYYNLREYKSSIDIASRVMKLKIFDKYYFKASIIKANVLYTDGRINESIKEYEKIAIKAEKYHFIEYVATSESNIGYVFTEQNKFNEAKLHLDEAMKLFDSLNNYYKLNVYDNVFGFKIKNNTADFDTFKKVILLAYDTNDKFRIKNNVKQFVNYAIRNKKSKEIFTKIIDFLNPKGIDLDSSLKLEIMEYVSGNTFESVLKLEHHHHHH”: the “soluble on expression in E. coli” value is recorded as “not soluble”.

As to “MGQWANLKAKVIQLWENTHESISQVGLLGDETGIIKFTIWKNAELPLLEQGESYLLRSVVVGEYNDRFQVQVNKNSSIEKLSEPIEVGLEHHHHHH”, the “soluble on expression in E. coli” value is “not soluble”.

As to “MQHFSRSVALLALSAGTLTSLPALAADELHYNQISLRAEVSQEVARDLMIVTLYSESQNTDPAKLAAEITTTMNKALDQARQVKDVTLRQGSRNSYPIYDGKGQKITGWRERAELRLESSDFAALSKLTGELLGDLKMGGMDFAIADPTRKASEDALLKDAVKAFKARAQLATEALGGKGYKIVNLNLNSNGYPQPYMRAPMMMKAASMDSAPVTPEVEAGTSQVSMTADGAIEVLMPLEHHHHHH”, the “soluble on expression in E. coli” value is given as “soluble”.

Regarding “MNFFTSPFSGIPLDQQVTNPNIIVGKHSYYSGYYHGHSFDDCVRYLHPERDDVDKLVIGSFCSIGSGAVFMMAGNQGHRSDWISTFPFFYQDNDNFADARDGFTRSGDTIIGHDVWIGTEAMIMPGVKIGHGAIIASRSVVTKDVAPYEVVGSNPAKHIKFRFSDVEIAMLLEMAWWNWPESWLKESMQSLCSSDIEGLYLNWQSKART”, the “soluble on expression in E. coli” value is “not soluble”.

As to “MASLLDKAKDFVADKLTAIPKPEGSVTDVDLKDVNRDSVEYLAKVSVTNPYSHSIPICEISFTFHSAGREIGKGKIPDPGSLKAKDMTALDIPVVVSYSILFNLARDVGVDWDIDYELQIGLTIDLPVVGEFTIPISSKGEIKLPTFKDFF”, the “soluble on expression in E. coli” value is given as “soluble”.

As for “MILDYIYHSGFAIEAEGVTLIIDYYKDSSETELNKGIVHDRLLQRPGKLYVLASHFHPDHFNREVLTWKEQRPDIIYIFSKDILKHHRAQKEDAIYINKGEEYEDDMLRIQAFGSTDVGISFLIHLQGKSIFHAGDLNNWHWSEESTEQEIRKAEGDFLAEIKYLQAAVPTIDLVMFPVDRRMGKDYMKGAQQFIERIKTTIFVPMHFSEDYEGGNAFRSIAEAGGCRFITITHRGESFDI”, the “soluble on expression in E. coli” value is on record as “not soluble”.
